From the nanobody polyreactivity screen of Harvey et al. (2022)

Assay: yeast display, Sf9 membrane polyspecificity reagent, FACS + sequencing; frameworks hold sequencing errors
Method in brief: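 Genes from sorted yeast were amplified by colony PCR, read by MiSeq 2 × 250 sequencing and filtered on CDR length. These cells carried a synthetic nanobody library in Saccharomyces cerevisiae BJ5465 and were sorted by FACS into low and high (top ~1%) gates on anti-HA and streptavidin fluorescence. Polyreactivity is labelled according to the gate of origin.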

Sequence | polyreactivity (PSR sort gate)
QVQLVESGGGLVQAGGSLRLSCAASGRIFRYNVMGWYRQPPGKERELVAAIRWSGGSTYYADSVKGRFTISRDNAKNTVYLQMNSLKPEDTAVYYCNTVGRWRGYDYWGQGTQVTVSS | high polyreactivity
QVQLVESGGGLVQAGGSLRLSCAASGRIFRYYAMGWSRQAPGKERELVAAISSSGGSTYYADSVKGRFTISRDNAKNTVYLQMNSLKPEDTAVYYCAGVFRLGVGYEYWGQGTQVTVSS | high polyreactivity
QVQLVESGGGLVQAGGSLRLSCAASGRIFRYYAMGWYRQAPGKERELDAAISRSGGSTYYADSVKGRFTISRDNAKNTVYLQMNSLKPEDTAVYYCAARVYRYGAMDYWGQGTQVTVSS | high polyreactivity
QVQLVESGGGLVQAGGSLRLSCAASGRIFRYYAMGWYRQAPGKERELVAAISSGGRTYYADSVKGRFPISRDNEKNTVYLQMNSLKPEDTAVYYCNTYTYAGYNYWGQGTQVTVSS | high polyreactivity
QVQLVESGGGLVQAGGSLRLSCAASGRIFRYYAMGWYRQAPGKERELVAAISSGVGNTYYADSVKGRFTISRDNAKNTVYVQMNSLKPEDTAVFYCKAKWRKFGTVRYDYWGQGTQVTVSS | high polyreactivity
QVQLVESGGGLVQAGGSLRLSCAASGRIFRYYAMGWYRQAPGKERELVAAISSSGGSTYYADSVKGRFTISRDNAKNTVYLQMNSLKPEDTAVYYCNTVGSVGKKRDYWGQGTQVTVSS | high polyreactivity
QVQLVESGGGLVQAGGSLRLSCAASGRIFRYYAMGWYRQAPGKERELVAAITRGGSTNYADSVKGRFTISRDNAKNTVYLQMNSLIPEDTAVYYCNKYPYFVYGDYGYWGQGTQVTVSS | high polyreactivity
QVQLVESGGGLVQAGGSLRLSCAASGRIFRYYAMGWYRQAPGKERELVAAITWSGGSTYYADSVKGRFTISRDNAKNTVYLQMNSLKPEDTAVYYCNAKSYQPFHGDYWGQGTQVTVSS | low polyreactivity
QVQLVESGGGLVQAGGSLRLSCAASGRIFRYYAMGWYRQAPGKERELVADIWSDGSTYYADSVKGRFTISRDNAKNTVYLQMNSLKPEDTAVYYCNAARTYYWYSAKFDYWGQGTQVTVSS | high polyreactivity
QVQLVESGGGLVQAGGSLRLSCAASGRIFRYYAMGWYRQAPGKERELVATISGRGGSTYYADSVKGRFTISRDNAKNTVYREMNSLKPEDTAVYYCYTVSTRYIYDYWGQGTQVTVSS | high polyreactivity
QVQLVESGGGLVQAGGSLRLSCAASGRIFRYYAMGWYSQAPGQDRELVAAISWSGGSTYYADSVKGRFTISRDKAKNTVYLQMHSLKPEDTAVYYCNKVPLGLEGDYWGQGTQVTVSS | high polyreactivity
QVQLVESGGGLVQAGGSLRLSCAASGRIFRYYDMGWYRQAPGKERELVAAITSDGSTKDADSVKGRFTISRDNAKNTVYLQMNSLKQEDTAVYYCNAEVLPTWYSPQLDYWGQGTQVTVSS | low polyreactivity
QVQLVESGGGLVQAGGSLRLSCAASGRIFRYYTMGWYRQAPGKERELVAAITARGTRTYYADSVKGRFTISRDNAKNTVYLQMNSLKPEETSVYYCAADRYIYFAPSMDYWGQGTQVTVSS | high polyreactivity
QVQLVESGGGLVQAGGSLRLSCAASGRIFRYYTRGWYRQAPGKERELVAAISSSGGRTYYADSVKGRFTISRDYANNTVYLQMNSLKPEDTAVYYCNTDGPTWYPTYDYWGQGTQVTVSS | high polyreactivity
QVQLVESGGGLVQAGGSLRLSCAASGRIFRYYVMGWNRQAPGKERELVATITSGGSTNYADSVKGRFTISRDNAKNTVYLQMNSLKPEDTAVYYCAAEKVSGQGEMDYWGQGTQVTVSS | low polyreactivity
QVQLVESGGGLVQAGGSLRLSCAASGRIFRYYVMGWYRQAPGKERELVATITSGGSTNYADSVKGRFTISRDNAKNTVYLQMYSLKPEDTAVYYCARGTSTCTYYWYGYWGQGTQVTVSS | low polyreactivity
QVQLVESGGGLVQAGGSLRLSCAASGRIFSAYAMGWFRQAPGKERELLAAISKRGGRTYYADSVKGRFTISRDNATNTVYLQTNSLKPEDTSVYYCNKRYLDGHDLDYCGQGTQVTVSS | high polyreactivity
QVQLVESGGGLVQAGGSLRLSCAASGRIFSDYAMGRYRQAPGKDRELVATITTGDSTNYADSVKGRFTISRDNAKNTVYLQMNSLKPEDTAVYYCNADRFADYDYWGQGTQVTVSS | low polyreactivity
QVQLVESGGGLVQAGGSLRLSCAASGRIFSFNAMGWYRQAPGKERELVASGGSTYADSVKGRFTISRDNAKNTVYLQMNSLKPEDTAVYYCAADPFYYFPSPFDYWGQGTQVTVSS | low polyreactivity
QVQLVESGGGLVQAGGSLRLSCAASGRIFSFNTMGWYRQAPGKERELVAAITSSSARTYYADSVKGRFTISRDNAKNTVYLQMNSLKPEDTAVYYCAADSTLSRYDYWGQGTQVTVSS | high polyreactivity
QVQLVESGGGLVQAGGSLRLSCAASGRIFSFYAMGWYRQSPGKERELVATISDGGATTYYADSVKGRFTISRDNAKNTVYLQMNSLKPEDTAVYYCAADKRGRPGLPDYDSWGQGTQVTVSS | low polyreactivity

Sequence | polyreactivity (PSR sort gate)
QVQLVESGGGLVQAGGSLRLSCAASGRIFSFYVMGWYRQEPGKERELVAAIDNGGGSTYYADSVKGRFTISRDNAKNTVYLQMNSLKPEDTAVYYCAAEVYDSDSEYYYWGQGTQVTVSS | low polyreactivity
QVQLVESGGGLVQAGGSLRLSCAASGRIFSGNTMGWYRPAPGKERELVAAISKSGGRTYYADSVKGRFPISRVNAKNTVYLQMNSLKPEDTAVYYCNADYRSHYLYDYWGQGTQVTVSS | low polyreactivity
QVQLVESGGGLVQAGGSLRLSCAASGRIFSGNTMGWYRQAPGKERELVAAISKSGGRTYYADSVKGRFTISRDNAKNTVYLQMNSLKPEDTAVYYCNADYRSHYLYDYWGQGTQVTVSS | low polyreactivity
QVQLVESGGGLVQAGGSLRLSCAASGRIFSGNVMGWYRQAPGKERELVAAISRSGGSTYYADSVKGRFTISRDNAKNTVYLQMNSLKPEDTAVYYCADVPTSNSFRSSFYYWGHGTQVTVSS | high polyreactivity
QVQLVESGGGLVQAGGSLRLSCAASGRIFSGYAIGWYRQAPGKERELVAAITSGGSTNYADSVKGRFTISRDNAKNTVYLQMNSLKPEDTAVYYCAADYREVSTTAYYYWGQGTQVTVSS | low polyreactivity
QVQLVESGGGLVQAGGSLRLSCAASGRIFSGYAMGWYRQAPGKERELVAAISQRGGSTTYADSVKGRFTISRDNAKKTVDLQMNSLKPEDTAVYDCAKRYTYPSGYDYWGQGTQVTVSS | low polyreactivity
QVQLVESGGGLVQAGGSLRLSCAASGRIFSGYVMGWYRQAPGKERELVAAISRSGGSTYYADSVKGRFTISRDNAKNTVYLQMNSLKPEDTAVYYCNAYYRYFRSIYDSWGQGTQVTVSS | high polyreactivity
QVQLVESGGGLVQAGGSLRLSCAASGRIFSGYVMGWYRQAPGKERELVAVISRSGGSTYYADSVKGRFTISRDNAKNTVYLLMNSLKPEDTAVYYCAAKHIDGSRGYVYWGQGTQVTVSS | low polyreactivity
QVQLVESGGGLVQAGGSLRLSCAASGRIFSHKAMGWYRQAPGKERELVAGISSGGGTTYADSVKGRFTISRDNAKNTVYLQMNSLKPEDTAVYYCNKQDQPVGRSGYPYGYDYWGQGTQVTVSS | low polyreactivity
QVQLVESGGGLVQAGGSLRLSCAASGRIFSHYAMGWYRQAPGKERELVAAITSDGSTNYADSVKGRFTISRDNAKNTVYLQMNSLKPEHTAVYYCAKYVHIPYYYYLFGSYDYWGQGTQLTVSS | low polyreactivity
QVQLVESGGGLVQAGGSLRLSCAASGRIFSKNAMGWYRPAPGKERELVAAISSGGSTYDADSVKGRFTISRDNAKNTVYLQMNSLKPEDTAVYYCAARKRGYYWGQGTQVTVSS | high polyreactivity
QVQLVESGGGLVQAGGSLRLSCAASGRIFSKYAMGWYRQAPGKARELVAAISTSTGSTYYADSVKGRFTISRDNAKNTVYLQMNSLKPEDTAVYYCAAVGSRWFSQTWRDYWGQGTQVTVSS | high polyreactivity
QVQLVESGGGLVQAGGSLRLSCAASGRIFSKYAMGWYRQAPGKDRELVAAISWSGGRTYYADSVKGRFTISRDNAKNTVYLQMNSLKPEDAALYYCAASFYTGYDYWGQGTQVTVSS | high polyreactivity
QVQLVESGGGLVQAGGSLRLSCAASGRIFSLNAMGWYRQAPGKERELVAGIRKRGGSTYYADSVKGRFTISRDNAKNTVYLQMNSLKPEDTAVYYCAAQPALTYRFYYWGQGTQVTVSS | high polyreactivity
QVQLVESGGGLVQAGGSLRLSCAASGRIFSLNAMGWYRQAPGKERELVAGIRKRGGSTYYADSVKGRFTISRDNAKNTVYLQMNSLKPEHTAVYYCAAQPALTYRFYYWGQGTQVTVSS | high polyreactivity
QVQLVESGGGLVQAGGSLRLSCAASGRIFSNNAMGWYRQAPGNERELVAAISSSGGSTYYADSVKGRFTISRDNAKNTVYLQMNSLKPEDTAVSYCNVGRRKIDDYWGQGTQVTVSS | high polyreactivity
QVQLVESGGGLVQAGGSLRLSCAASGRIFSNYAMGWYRQAPGKERELVAAISRGGGRTFYADSVKGRFTISRDNAKNTVYLQMNSLKPEDTAVYYCATRSYYVKGDYWGQGTQVTVSS | high polyreactivity
QVQLVESGGGLVQAGGSLRLSCAASGRIFSNYAMGWYRQAPGKERELVAAISSSGGRTYYADSVKGRFTISRDNAKNTVYLQMNSLKPEDTAVYYCARRHTGTKFAFYYWGQGTQVTVSS | high polyreactivity
QVQLVESGGGLVQAGGSLRLSCAASGRIFSPNAMGWYRQAHVKERELVADITFGDGSTYYADSVKGRFTISRDNAKNTVYLQMNSLIPEDTAVYYCAAELYYLYALYIYYPFYYWGQGTQVTVSS | high polyreactivity
QVQLVESGGGLVQAGGSLRLSCAASGRIFSQNAMGWYRQAPGKERELVAAISGGSTNYADSVKGRFTISRDNAKNTVFLQMNSLKPEDTAVYYCAADAPFKMDYWGQGTQVTVSS | low polyreactivity
